Measurements reported in patent US10617757B2, “Methods for treating multiple myeloma” (The Regents of the University of California, priority 2014, dated 2020).

Test system: licensed KIR3DL1+ NK cells
Experiment: NK cell degranulation (CD107α staining, flow cytometry) stimulated by patient-derived myeloma target cells
Format: cell-based, human
Settings: presence vs absence of SAR650984; myeloma target cells expressing HLA-Bw4-I80 ligand; FIG. 8
Experimental: The functional capacity of a patient's NK cells stimulated by pre-treatment patient-derived myeloma target cells was assessed in response to SAR650984, using flow cytometry (FIG. 8).

SAR650984: a humanized anti-CD38 antibody; comprises VH and VL CDR sequences set forth in SEQ ID NOs:1-6
Degranulation as measured by CD107α staining (surrogate marker for cytotoxicity): greatly enhanced degranulation
